In patent US20170305994A1 (Novo Nordisk, published 2017):
Read-outs that look alike come from different tables or passages of the source.

T1: human DR3 with the death domain deleted (ΔM339-P417 of SEQ ID NO:1), expressed on CHOK1SV cells (human, UniProt Q93038 25-338)
T1 construct: also called truncated DR3; hDR3 expressing CHO cells
T1 sequence: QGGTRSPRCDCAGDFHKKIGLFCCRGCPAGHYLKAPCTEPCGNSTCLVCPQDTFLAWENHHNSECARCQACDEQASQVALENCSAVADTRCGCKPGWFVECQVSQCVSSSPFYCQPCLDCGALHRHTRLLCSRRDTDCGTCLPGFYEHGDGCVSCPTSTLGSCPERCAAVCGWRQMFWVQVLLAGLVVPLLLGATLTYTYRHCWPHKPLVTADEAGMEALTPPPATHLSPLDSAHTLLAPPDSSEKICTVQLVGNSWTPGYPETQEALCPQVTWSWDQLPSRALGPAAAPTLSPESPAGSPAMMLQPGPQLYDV

T2: human DR3 (full length, on cells) (human, UniProt Q93038 25-417)
T2 sequence: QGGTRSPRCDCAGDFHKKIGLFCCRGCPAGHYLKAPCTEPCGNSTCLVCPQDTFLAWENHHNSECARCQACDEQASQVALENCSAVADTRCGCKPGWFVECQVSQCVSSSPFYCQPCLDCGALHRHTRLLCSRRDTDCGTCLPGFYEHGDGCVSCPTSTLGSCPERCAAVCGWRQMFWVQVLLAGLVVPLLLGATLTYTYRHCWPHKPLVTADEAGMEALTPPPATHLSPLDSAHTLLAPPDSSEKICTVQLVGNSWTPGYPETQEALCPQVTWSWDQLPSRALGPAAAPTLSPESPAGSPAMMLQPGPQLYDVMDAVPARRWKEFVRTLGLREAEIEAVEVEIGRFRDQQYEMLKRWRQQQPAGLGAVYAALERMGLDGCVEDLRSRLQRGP


What was measured:
DR3 (CRD1)-Fc = molecular target: T3, DR3 (CRD1)-Fc (human); experiment: SPR Biacore T200, DR3(CRD1)-Fc captured by anti-human IgG, Fab as analyte, 25 C, 1:1 model, mean of 3 surface densities
T3 construct: Amino acids 25-71 of DR3 fused to the Fc domain of human IgG4; purified to exclude oligomers (mainly dimeric)
Protocol: The experiments were performed on a Biacore T200 instrument (GE Healthcare) and analysed with the Biacore T200 Evaluation Software. Anti human IgG antibodies (human IgG capture kit from GE Healthcare) were immobilized on all flow cells of a CM5 sensor chip according to manufacturer's instructions. HBS-EP (GE Healthcare) with 0.1% human serum albumin was used as running buffer. DR3(CRD1)-Fc (SEQ ID NO:2) was captured on the chip at low surface densities between 14 and 45 RU. Fab fragments were diluted to concentrations between 90 and 0.037 nM and subsequently injected for 360 s. […] Binding curves were measured at 25° C. with a flow rate between 30 and 60 μL/min.
Regeneration was performed with 3 M […] for 2×20 s. The raw data were double referenced by subtraction of the signals from a reference flow cell without captured ligand and a buffer blank. Determination of the kinetic parameters was performed by fitting with a 1:1 binding model using the Biacore T200 Evaluation Software (GE Healthcare). Average values obtained from 3 different surface densities of DR3(CRD1)-Fc (SEQ ID NO:2) were calculated and are stated in table 14

[1] = molecular target: T1, human DR3 with the death domain deleted …; experiment: flow cytometry competition: Fab vs TL1A on hDR3-expressing CHO cells
[2] = molecular target: T2, human DR3 (full length, on cells); experiment: cell-based or functional assay
[3] = molecular target: T2, human DR3 (full length, on cells); experiment: cell-based or functional assay; remark: listed apart in the source
[4] = molecular target: T2, human DR3 (full length, on cells); experiment: flow cytometry on IL-12/IL-18/TL1A activated CD4+ T cells, 1 µg/ml
Protocol: (§1) Buffy Coats were obtained from normal healthy volunteers from Copenhagen University Hospital. CD4+ T cells were isolated through magnetic bead separation. Cells were activated with 2 ng/ml IL-12, 50 ng/ml IL-18 and 100 ng/ml TL1A (Flag-HIS-TEV-TL1A-produced at Novo Nordisk A/S) and cultured for 5 days. On day 5 cells were stained with 10, 5, 1, 0.5, 0.1 or 0.0001 μg/ml of the anti-DR3 mAb clones 0072, 0073, or 0077, or with Fab fragment clones 0087, 0088 and 0091. A secondary PE conjugated goat-anti-mouse (H+L) was used for detection.
as §1, with “Material and Methods: Buffy” for “Buffy”, “Copenhagen” for “Copenhagen University”, “0088 or” for “0088 and”, “detection. Samples were in duplicate. Staining intensity was evaluated by FACS.” for “detection.”

[5] = molecular target: T2, human DR3 (full length, on cells); experiment: cell-based or functional assay; remark: listed apart in the source
[6] = molecular target: T2, human DR3 (full length, on cells); experiment: flow cytometry on IL-12/IL-18/TL1A activated CD4+ T cells, 1 µg/ml; remark: listed apart in the source
Protocol: as §1
The greater observed MFI values of IgG treated compared with Fab treated cells was expected since the secondary (detecting) antibody (anti-IgG heavy and light chain) bound to both Fab and Fc parts of the full-length IgG antibody clones, but only to Fab parts of Fab clones (Table 9).

[7] = molecular target: T2, human DR3 (full length, on cells); experiment: flow cytometry on CD3/CD28-stimulated human CD4+ T cells
Protocol: Human CD4-positive T cells were purified from Buffy coats using CD4 Rosettesep (Stem cell technologies) and Histopaque (Sigma). T cells were stimulated with CD3/CD28 Dynabeads (Invitrogen) at a 1:1 ratio for 4 days in T75 flask at 2 mio CD4 T cells/ml in RPMI supplemented with 10% fcs. Beads were removed using a magnet, and cells were washed twice before titrating in antibodies on 500.000 cells/staining. Binding saturation was measured after incubation with goat-anti-mouse phycoerythrin (Jackson ImmunoResearch) and cells were subsequently analysed by flow cytometry on a BD LSRII. All antibodies reached saturation at 3 μg/ml.

[8] = molecular target: T2, human DR3 (full length, on cells); experiment: cell-based or functional assay; remark: listed apart in the source
[9] = molecular target: T2, human DR3 (full length, on cells); experiment: cell-based or functional assay; remark: listed apart in the source

T3 sequence (chain, as listed by the source limits assumed): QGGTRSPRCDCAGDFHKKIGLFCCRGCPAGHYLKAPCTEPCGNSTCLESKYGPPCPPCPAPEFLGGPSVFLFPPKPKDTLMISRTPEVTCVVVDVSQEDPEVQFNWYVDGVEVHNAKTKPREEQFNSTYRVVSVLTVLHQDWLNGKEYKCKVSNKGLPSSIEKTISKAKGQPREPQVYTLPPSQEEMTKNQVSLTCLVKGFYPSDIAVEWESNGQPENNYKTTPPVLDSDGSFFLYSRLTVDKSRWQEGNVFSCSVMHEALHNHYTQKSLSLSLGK

Row | Binder | Kd (DR3 (CRD1)-Fc) | koff (DR3 (CRD1)-Fc) | kon (DR3 (CRD1)-Fc) | IC50 [1] | max percentage inhibition [1] | IC50 at 40 ng/ml TL1A, I5 reporter cells [2] | IC50, TNFalpha inhibition, TL1A-activated CD4+ T cells, donor 1 [3] | IC50, TNFalpha inhibition, TL1A-activated CD4+ T cells, donor 2 [3] | max % inhibition of TNFalpha, donor 1 [3] | max % inhibition of TNFalpha, donor 2 [3] | MFI [4] | fold response, DR3 reporter, 40 ng/ml TL1A + 0.1 microg/ml [5] | fold response, DR3 reporter, 40 ng/ml TL1A + 1 microg/ml [5] | fold response, DR3 reporter, 40 ng/ml TL1A + 10 microg/ml [5] | fold response, DR3 reporter, 40 ng/ml TL1A + 100 microg/ml [5] | fold response, DR3 reporter, no TL1A, 0.1 microg/ml [5] | fold response, DR3 reporter, no TL1A, 1 microg/ml [5] | fold response, DR3 reporter, no TL1A, 10 microg/ml [5] | fold response, DR3 reporter, no TL1A, 100 microg/ml [5] | MFI [6] | further results
1 | 0143 (chimeric Fab of 44F434, human IgG4 constant domain, hinge Cys->Ser) (Fab, V domains shown, IgG4-Ser, chimeric) VH: EVQLVESGGDLVMPGGSLKLSCAASGFIFSSYGLSWIRQTPDKRLEWVATISGGDSYTYYPDSVKGRFTISSDNAKNTLYLQMTSLKSEDTAMYYCATQREIYYGTYYALDHWGQGTSVTVSS VL: DIQMTQTTSSLSASLGDRVTISCRASQDINNYLNWYQQKPDGTVKLLIYYTSRLQSGVPSRFSGSGSGTDYSLTISSLEQDDIATYFCQQGSPLPWTFGGGTKLEIKR | 0.00147 nM | 5.1e-06 s⁻¹ | 3.49e+06 M⁻¹ s⁻¹ | 0.12 nM | 76% | 0.29 nM | 0.148 nM | 0.074 nM | 76.7% | 66% | – | – | – | – | – | – | – | – | – | – | IC50, TNFalpha inhibition, average (n 5) [3]: 0.125 nM
2 | 0087 (Fab from papain cleavage of mAb 0072) (Fab, V domains shown, murine IgG1 Fab by papain cleavage) VH: EVKLVESGGGLVKPGGSLKLSCSASGFAFSNYDMSWVRQTPEKRLEWVAAFSSDGYTFYPDSLKGRFTISRDNARNTLYLQMSSLGSEDTALYCCARHADYANYPVMDYWGQGTSVTVSS VL: DIVLAQSPASLLVSLGQRATISCRASKSVSTSGYSYMHWYQQKPGQPPKLLIYLASNLESGVPARFSGSGSGTDFTLNIHPVEEEDAATYYCQHSRELPLTFGAGTMLELKR | – | – | – | – | – | – | – | – | – | – | 500 MFI | 5.8 fold | 2.7 fold | 2.1 fold | 2.1 fold | 1 fold | 1 fold | 1 fold | 1 fold | 500 MFI | –
3 | 0073 (murine mAb purified from hybridoma 28F26A3) (antibody, V domains shown, murine IgG2a, kappa; also called 0085) VH: EVKVVESGGGLVKPGGSLKLSCAASGFVFSSYDMSWVRQIPEKRLEWVAAISSGDYYTYYPDSVKGRFTISRDDARNTLYLQMSSLRSEDTALYYCARHRGGNYPQYAMDYWGQGTSVTVSS VL: DILLTQSPASFAVSLGQRATISCRASKSVSTSGYNYIHWYQQKPGQPPKLLIYLTSNLESGVPARFSGSGSGTDFTLNIHPVEEEDAATYYCQHSRELPFTFGSGTKLEIKR | – | – | – | – | – | – | – | – | – | – | 1300 MFI | – | – | – | – | – | – | – | – | 1300 MFI | Median Fluorescent Intensity [7]: 2840; Staining index (MFI Ab/MFI Isotype) [7]: 12.8; saturation concentration [7]: 3 µg/mL; fold response, DR3 reporter, 40 ng/ml TL1A + 0.1 microg/ml [8]: 24.2 fold; fold response, DR3 reporter, 40 ng/ml TL1A + 1 microg/ml [8]: 27.9 fold; fold response, DR3 reporter, 40 ng/ml TL1A + 10 microg/ml [8]: 25.5 fold; fold response, DR3 reporter, 40 ng/ml TL1A + 100 microg/ml [8]: 19 fold; fold response, DR3 reporter, no TL1A, 0.1 microg/ml [8]: 12.8 fold; fold response, DR3 reporter, no TL1A, 1 microg/ml [8]: 14.4 fold; fold response, DR3 reporter, no TL1A, 10 microg/ml [8]: 12.8 fold; fold response, DR3 reporter, no TL1A, 100 microg/ml [8]: 6.9 fold
4 | 0088 (Fab from papain cleavage of mAb 0073) (Fab, V domains shown, murine IgG2a Fab by papain cleavage) VH: EVKVVESGGGLVKPGGSLKLSCAASGFVFSSYDMSWVRQIPEKRLEWVAAISSGDYYTYYPDSVKGRFTISRDDARNTLYLQMSSLRSEDTALYYCARHRGGNYPQYAMDYWGQGTSVTVSS VL: DILLTQSPASFAVSLGQRATISCRASKSVSTSGYNYIHWYQQKPGQPPKLLIYLTSNLESGVPARFSGSGSGTDFTLNIHPVEEEDAATYYCQHSRELPFTFGSGTKLEIKR | – | – | – | – | – | – | – | – | – | – | 500 MFI | 15.2 fold | 6.3 fold | 2.9 fold | 2.8 fold | 1.1 fold | 1.1 fold | 1.1 fold | 1 fold | 500 MFI | –
5 | 0124 (chimeric Fab of 28F26, human IgG4 constant domain, hinge Cys->Ser) (Fab, V domains shown, murine variable domains, human IgG4 constant domain (IgG4-Ser)) VH: EVKVVESGGGLVKPGGSLKLSCAASGFVFSSYDMSWVRQIPEKRLEWVAAISSGDYYTYYPDSVKGRFTISRDDARNTLYLQMSSLRSEDTALYYCARHRGGNYPQYAMDYWGQGTSVTVSS VL: DILLTQSPASFAVSLGQRATISCRASKSVSTSGYNYIHWYQQKPGQPPKLLIYLTSNLESGVPARFSGSGSGTDFTLNIHPVEEEDAATYYCQHSRELPFTFGSGTKLEIKR | 0.267 nM | 0.000201 s⁻¹ | 752000 M⁻¹ s⁻¹ | 1.3 nM | 79% | 2.4 nM | 1.11 nM | 1.21 nM | 52.3% | 41.3% | – | – | – | – | – | – | – | – | – | – | GM-CSF, fold downregulation, +TL1A + anti DR3 Fab [9]: 7.9 fold; IFNγ, fold downregulation, +TL1A + anti DR3 Fab [9]: 1.1 fold; IL-6, fold downregulation, +TL1A + anti DR3 Fab [9]: 13.3 fold; TNFα, fold downregulation, +TL1A + anti DR3 Fab [9]: 5 fold; IC50, TNFalpha inhibition, average (n 4) [3]: 1.33 nM
